{"source": "paper PMC10093686", "about": "“Structural insights into acetylated histone ligand recognition by the BDP1 bromodomain of Plasmodium falciparum” (International journal of biological macromolecules, 2022)", "key": {"[1]": {"biological_target": "PfBDP1-BRD (residues 303–488 or 333–456), bromodomain of P. falciparum Bromodomain Protein 1, as used in ITC (P. falciparum) (UniProt Q8IJ72)", "assay": "ITC; histone peptide (2.5–5.0 mM) in the syringe, PfBDP1-BRD (303–488 or 333–456; 100–200 μM) in the sample cell; 5°C; 20 mM sodium phosphate pH 7.5, 150 mM NaCl, 1 mM TCEP; 1:1 binding model, single set of identical sites"}, "[2]": {"biological_target": "PfBDP1-BRD (residues 303–488 or 333–456), bromodomain of P. falciparum Bromodomain Protein 1, as used in ITC (P. falciparum) (UniProt Q8IJ72)", "assay": "ITC; histone peptide (2.5–5.0 mM) in the syringe, PfBDP1-BRD (303–488 or 333–456; 100–200 μM) in the sample cell; 5°C; 20 mM sodium phosphate pH 7.5, 150 mM NaCl, 1 mM TCEP; 1:1 binding model, single set of identical sites", "remark": "listed apart in the source"}}, "note": "pKd: −log10 of the molar value. Read-outs that look alike come from different tables or passages of the source."}
{"substance": "H4K5acK8acK12acK16ac histone peptide (1–24), tetra-acetylated histone H4", "values": [{"measurement": "pKd", "setting": "[1]", "result": 3.76}, {"measurement": "pKd", "setting": "[2]", "result": 3.93}]}
